Columns and labels:
[1] = molecular target: T1, human FXIIa (Homo sapiens, UniProt P00748); experiment: Surface plasmon resonance (Biacore 4000) binding kinetics, hFXIIa
T1 construct: Factor XIIa, a beta-globulin plasma serine protease composed of an amino-terminal heavy chain and a carboxy-terminal light chain; purchased Enzyme Research Laboratories 1212a; host or cells: human plasma (said of the same vendor's proteins used as immunogen)
T1 sequence (P00748 20-372 limits assumed): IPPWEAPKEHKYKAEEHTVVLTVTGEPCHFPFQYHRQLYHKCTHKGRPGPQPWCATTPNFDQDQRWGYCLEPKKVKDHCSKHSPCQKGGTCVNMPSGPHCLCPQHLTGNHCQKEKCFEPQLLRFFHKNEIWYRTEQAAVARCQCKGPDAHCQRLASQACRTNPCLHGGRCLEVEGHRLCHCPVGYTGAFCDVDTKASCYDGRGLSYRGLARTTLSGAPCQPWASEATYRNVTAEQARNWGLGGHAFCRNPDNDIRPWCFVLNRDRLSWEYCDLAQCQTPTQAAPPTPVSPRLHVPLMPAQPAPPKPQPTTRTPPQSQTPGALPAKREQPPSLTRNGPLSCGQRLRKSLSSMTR
T1 sequence (P00748 373-615 limits assumed): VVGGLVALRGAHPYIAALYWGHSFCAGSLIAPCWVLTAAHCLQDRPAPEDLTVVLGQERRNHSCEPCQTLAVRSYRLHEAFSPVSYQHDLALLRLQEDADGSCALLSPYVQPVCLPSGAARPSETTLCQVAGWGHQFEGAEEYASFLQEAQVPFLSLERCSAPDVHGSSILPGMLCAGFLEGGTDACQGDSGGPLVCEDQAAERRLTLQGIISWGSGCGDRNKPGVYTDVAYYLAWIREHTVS

[2] = tested on: thrombin generated via the Extrinsic and Common pathways; experiment: Thrombin Generation Assay (TGA) triggered by Tissue Factor; assay type: biochemical, human; settings: Extrinsic Pathway Activation with Tissue Factor; dash cells; dose up to 500 nM
Description: (§1) This Example describes the inhibitory activity of selected antibodies, as determined by four functional plasma assays: 1) Activated Partial Thromboplastin Time (aPTT), 2) Prothrombin Time (PT), 3) Thrombin Generation Assay (TGA) triggered by ellagic acid and 4) TGA triggered by Tissue Factor. The aPTT test evaluates all clotting factors of the Intrinsic and Common pathways of the coagulation cascade by measuring time for a clot to form after the addition of calcium and ellagic acid, whereas the PT test evaluates all clotting factors of the Extrinsic and Common pathways of the coagulation cascade after the addition of calcium and Tissue Factor. The TGA triggered by ellagic acid measures the rate and amount of thrombin generated via the Intrinsic and Common pathways whereas TGA triggered by Tissue Factor measures the rate and amount of thrombin generated via the Extrinsic and Common pathways.
The thrombin generation profile was determined in a Thermo Scientific Hemker Thrombinoscope in the following manner: A total of 55 ul of pooled normal human plasma was added to a well of a microplate at 37° C. Then 5 ul of a 2× serially diluted test article (antibody or small molecule inhibitor) in PBS was added to the well of the microplate and allowed to incubate for 30 min. 15 ul of Tissue Factor PPP Reagent (Diagnostica Stago) was added to the well and allowed to incubate for 45 min. Then 15 ul of Fluo Flu Cal substrate (Diagnostica Stago) was added immediately before a continuous 90 min reading of the microplate. The measured real-time thrombin concentration values were plotted against time to yield a thrombogram profile for each concentration of the test article used.

[3] = molecular target: T1, human FXIIa; experiment: Surface plasmon resonance (Biacore 4000) binding kinetics, hFXIIa; remark: listed apart in the source
Description: Equilibrium dissociation constant (KD) for different FXII reagents binding to purified anti-FXII monoclonal antibodies were determined using a real-time surface plasmon resonance based Biacore 4000 biosensor. All binding studies were performed in 10 mM HEPES, 300 mM NaCl, and 0.05% v/v Surfactant Tween-20, pH 7.4 (HBS-P) running buffer at 25° C. and 37° C. The Biacore CM5 sensor chip surface was first derivatized by amine coupling with the mouse anti-human Fc specific monoclonal antibody (GE Healthcare Cat #BR100839) to capture anti-FXII monoclonal antibodies. Binding studies were performed on human FXII and FXIIa (Enzyme Research Laboratories, Cat #1212 and 1212a, respectively). Different concentrations of hFXII and hFXIIa (50 nM-3.125 nM; 2-fold serial dilution) were first prepared in HBS-P running buffer and were injected over anti-human Fc captured anti-FXII monoclonal antibody surface for 3 minutes at a flow rate of 30 uL/minute, while the dissociation of monoclonal antibody bound FXII reagent was monitored for 5 minutes in HBS-P running buffer. The association rate (ka) and dissociation rate (kd) were determined by fitting the real-time binding sensorgrams to a 1:1 binding model with mass transport limitation using Scrubber 2.0c curve-fitting software. Binding dissociation equilibrium constant (KD) and dissociative half-life (t½) were calculated from the kinetic rates as: […]

[4] = tested on: Extrinsic and Common pathways of the coagulation cascade; experiment: Prothrombin Time (PT) in pooled normal human plasma; assay type: biochemical; settings: for C2xt of Prothrombin Time (PT) - Extrinsic Pathway: dash cells, dose up to 4 uM; for effect on plasma PT (in words): dose response curves, pooled normal human plasma
Description: as §1
The PT was determined on Diagnostica Stago STart4 Hemostasis Analyzer in the following manner. A total of 50 ul of pooled normal human plasma was added to a cuvette at 37° C. After 1 min, 5 ul of a 2× serially diluted test article (antibody or small molecule inhibitor) in PBS was added to the cuvette and allowed to incubate for 5 min. Then 100 ul of Tissue Factor (TriniCLOT PT Excel, Diagnostica Stago) was added to start the reaction. The measured clot time for the test article concentration was normalized to baseline (no drug) plasma clot time and plotted against log molar concentration of the test article. The results were analyzed using nonlinear regression (4-parameter logistics) with Prism 5 software (GraphPad) to obtain doubling time concentration.

Molecule	100 nM Ag Bound (RU) ([1]; 25° C.)	100 nM Ag Bound (RU) ([1]; 37° C.)	Concentration required for ↑ lag time by 2× [2]	Concentration required for ↓ endogenous thrombin potential by ½ [2]	Concentration required for ↓ thrombin peak by ½ [2]	Kd ([3]; 25° C.) [nM]	ka ([3]; 25° C.) [M⁻¹ s⁻¹]	kd ([3]; 25° C.) [s⁻¹]	t½ ([3]; 25° C.) [min]	Kd ([3]; 37° C.) [nM]	ka ([3]; 37° C.) [M⁻¹ s⁻¹]	kd ([3]; 37° C.) [s⁻¹]	t½ ([3]; 37° C.) [min]	C2xt of Prothrombin Time (PT) - Extrinsic Pathway [4]	effect on plasma PT (in words) [4]
mAb26048: fully human anti-FXII/FXIIa monoclonal antibody, HCVR/LCVR SEQ ID NOs: 18/26 (antibody, V domains shown) VH: EVQLVESGGGLVQPRGSLRLSCVASGFTFSDYGMSWVRQAPGKGLEWVSVIGGAGHGTYYADSVKGRFTISRDNSRNTLYLQMNSLRDEDTAVYYCAKKYYWNYVGGMDVWGRGTTVTVSS VL: DIQMTQSPSSVSASVGDRVTITCRASQDINNWLAWYQQKPGKAPKLLISTASSLQSGVPSRFSGSGSGTDFTLTISSLQPEDFATYYCQQANSLPFTFGPGTKVDIK	267.8	335.6	— (no effect on thrombin generation with a dose up to 500 nM)	— (no effect on thrombin generation with a dose up to 500 nM)	— (no effect on thrombin generation with a dose up to 500 nM)	2.07	208000	0.00043	26.8	1.79	439000	0.000784	15	— (no inhibitory effect on clotting time with a dose up to 4 uM)	without increasing PT
mAb26049: fully human anti-FXII/FXIIa monoclonal antibody, HCVR/LCVR SEQ ID NOs: 34/42 (antibody, V domains shown) VH: EVQLVESGGDLVQPGGSLRLSCAASGFTFNTYAMHWVRQAPGKGLEYISAIDTKGGSTYYADSVKGRFTISRDNSKNAQYLQMDSLRVEDMAVYYCARGFGLDVWGQGTTVTVSS VL: DVVMTQSPLSLAVTLGQPASISCRSSQSLGYSDGNTYLNWFQQRPGQSPRRLIYKVSNRDSGVPDRFSGSGSGTDFTLKINRVETVDVGVYYCMQATHWPYTFGQGTKLEIK	162.4	251.5	— (no effect on thrombin generation with a dose up to 500 nM)	— (no effect on thrombin generation with a dose up to 500 nM)	— (no effect on thrombin generation with a dose up to 500 nM)	5.07	97600	0.000495	23.4	6.31	244000	0.00154	7	— (no inhibitory effect on clotting time with a dose up to 4 uM)	without increasing PT
mAb26036: fully human anti-FXII/FXIIa monoclonal antibody, HCVR/LCVR SEQ ID NOs: 2/10 (antibody, V domains shown) VH: QVQLVQSGAEVKKPGASVTVSCKASGYTFTSYYLHWVRQAPGQGLEWMGIINPSGGSTSYAQKFQGRVTMTRDTSTSTVYMELSSLRSEDTAVYYCARGVTTVTTYYHYYNMDVWGQGTTVTVSS VL: DIQMTQSPSSLSASVGDRVTITCRASQGISNYLAWFQQKPGKAPKSLIYAASSLQSGVPSKFSGSGSGTDFTLTISSLQPEDFATYYCQKYNTYPLTFGGGTKVEIK	89.9	166.52	— (no effect on thrombin generation with a dose up to 500 nM)	— (no effect on thrombin generation with a dose up to 500 nM)	— (no effect on thrombin generation with a dose up to 500 nM)	3.78	42800	0.000162	71.4	4.74	84600	0.000401	29	— (no inhibitory effect on clotting time with a dose up to 4 uM)	without increasing PT

Source: US12068729B2, “Anti-factor XII/XIIa antibodies and uses thereof” (Regeneron Pharmaceuticals, Inc., priority 2018, dated 2024)
